# Laboratory results reported in patent US20240368289A1 (LAEKNA THERAPEUTICS SHANGHAI, published 2024).
# B1: clone A (Fab) (Fab, V domains shown)
# VH: QVQLVQSGAEVKKPGSSVKVSCKASGGQFYHSRISWVRQAPGQGLEWMGGIIPIYGTANYAQKFQGRVTITADESTSTAYMELSSLRSEDTAVYYCVKDLTWTNLGLDIWGQGTMVTVSS
# VL: EIVMTQSPSSLSASVGDTVTITCRASQGVSRWLAWYQQKPGKAPRLLIYAASSLHSGVPSRFSGSGSGTHFTLTISSLQPEDFATYFCQQSYSTPFTFGPGTKLEIK
# notes: Fab made in E. coli TG1 and purified on Ni-NTA
# Key:
# [1] = target: T1, recombinant protein comprising the human ACVR2A extracellular domain (ECD) fused to the human IgG1 Fc region (human, UniProt P27037 20-135); assay: SPR, Biacore 8000 (2nd test); ACVR2A-Fc captured by anti-human Fc, Fab injected
# T1 construct: extracellular domain; also called ACVR2A-Fc; ACVR2A-FC; not shown: human IgG1 Fc region
# Source text: (§1) 2.2 Surface Plasmon resonance (SPR) measurements and affinity analysis by anti-human Fc capture format. After affinity panning, output-3 (03) of CDRH1 library were screened for binding ability by Fab ELISA and followed by NGS DNA sequencing. Based on binding Elisa and sequence abundance from NGS data, 11 clones were select for SPR analysis. Approximately 100-800 resonance units (RU) of antigen ACVR2A, was captured by anti-human Fc immobilized on a channel of a CM5 chip with an activated amine group. After immobilization, Fab antibodies were injected into the channels at 25° C. in HBS-EP buffer, with a flow rate of 30 μL/min, 1 min. When the data collection was finished in each cycle, the sensor surface was regenerated using 80 mM NaOH with a flow rate of 30 μL/min, 15 sec and reused chip in next cycle. After subtraction of reference surface and buffer injection, curve was locally fitted with BIA evaluation version 4.1 using a 1:1 Langmuir binding mode.
# (§2) The affinity of selected 11 anti-ACVR2A monoclonal antibody clones were determined on Biacore®3000 and Biacore®8000 as shown in Table 4 below.
# [2] = target: T1, recombinant protein comprising the …; assay: SPR, Biacore 3000 (1st test); ACVR2A-Fc captured by anti-human Fc, Fab injected; 1st test (Biacore 3000)
# Source text: as §1, §2
# [3] = target: T1, recombinant protein comprising the …; assay: SPR, Biacore 3000 (1st test); ACVR2A-Fc captured by anti-human Fc, Fab injected
# Source text: as §1, §2
# T1 sequence (P27037 20-135): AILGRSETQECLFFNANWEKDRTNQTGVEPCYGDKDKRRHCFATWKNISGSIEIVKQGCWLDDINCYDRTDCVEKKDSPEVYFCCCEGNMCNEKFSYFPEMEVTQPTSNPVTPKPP
binder,measurement,setting,value
B1,Kd,[1],5.35 nM
same,koff,[1],0.00257 s⁻¹
same,kon,[1],481000 M⁻¹ s⁻¹
same,kon,[2],429000 M⁻¹ s⁻¹
same,Kd,[3],5.29 nM
same,koff,[3],0.00227 s⁻¹
